Drawing on article PMC12758282, this text covers binding for one sequence.

The series deals with T1, RstA (Escherichia coli O157:H7 (EHEC; strain not given in the material)) (UniProt P52108).
T1 sequence: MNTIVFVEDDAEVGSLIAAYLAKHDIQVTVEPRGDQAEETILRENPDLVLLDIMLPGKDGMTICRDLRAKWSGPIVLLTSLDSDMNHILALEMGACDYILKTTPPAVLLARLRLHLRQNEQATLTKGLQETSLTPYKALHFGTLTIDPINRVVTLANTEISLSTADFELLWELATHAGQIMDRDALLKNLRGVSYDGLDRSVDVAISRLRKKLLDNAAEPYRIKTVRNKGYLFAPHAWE
In words: EMSA. For orientation: In EMSA bound probe runs differently from free probe, usually more slowly.

With “GTTATCGCAGGGAGCCACACAGCGTGTGTTGGACGCGACTCAGCTTTACCTTGGTGAGATTGGTTATTCACCACTGTTAACGGCCGAAGAAGAAGTTTATTTTGCGCGTCGCGCACTGCGTGGAGATGTCGCCTCTCGCCGCCGGATGATCGAGAGTAACTTGCGTCTGGTGGTAAAA (double strand) [rpoS fragment]”, the binding entry was “no binding”.
